Experimental data as given in article PMC6123407.

Assays:
Assay in all cases: purified protein
purified protein [1] = substrate: N=C(N)NCCCCN; conditions: 100 μM p-coumaroyl-CoA, 50 mM Tris-HCl pH 7.5, room temperature, apparent Km, acyl-acceptor
purified protein [2] = substrate: CC(C)(COP(=O)(O)OP(=O)(O)OC[C@H]1O[C@@H](n2cnc3c(N)ncnc32)[C@H](O)[C@@H]1OP(=O)(O)O)[C@@H](O)C(=O)NCCC(=O)NCCSC(=O)/C=C/c1ccc(O)cc1; conditions: 100 μM agmatine sulphate, 50 mM Tris-HCl pH 7.5, room temperature, apparent Km, acyl-donor
purified protein [3] = substrate: NCCCCN; conditions: 100 μM p-coumaroyl-CoA, 50 mM Tris-HCl pH 7.5, room temperature, apparent Km, acyl-acceptor
purified protein [4] = substrate: COc1cc(/C=C/C(=O)SCCNC(=O)CCNC(=O)[C@H](O)C(C)(C)COP(=O)(O)OP(=O)(O)OC[C@H]2O[C@@H](n3cnc4c(N)ncnc43)[C@H](O)[C@@H]2OP(=O)(O)O)ccc1O; conditions: 100 μM agmatine sulphate, 50 mM Tris-HCl pH 7.5, room temperature, apparent Km, acyl-donor

B1: HvACT1 (agmatine coumaroyltransferase, ACT) (Hordeum vulgare) (protein)
chain: MKITVHSSKAVKPEYGACGLAPGCTADVVPLTVLDKANFDTYISVIYAFHAPAPPNAVLEAGLGRALVDYREWAGRLGVDASGGRAILLNDAGARFVEATADVALDSVMPLKPTSEVLSLHPSGDDGPEELMLIQVTRFACGSLVVGFTTQHIVSDGRSTGNFFVAWSQATRGAAIDPVPVHDRASFFHPREPLHVEYEHRGVEFKPCEKAHDVVCGADGDEDEVVVNKVHFSREFISKLKAHASAGAPRPCSTLQCVVAHLWRSMTMARGLDGGETTSVAIAVDGRARMSPQVPDGYTGNVILWARPTTTAGELVTRPVKHAVELISREVARINDGYFKSFIDFANSGAVEKERLVATADAADMVLSPNIEVDSWLRIPFYDMDFGGGRPFFFMPSYLPVEGLLILLPSFLGDGSVDAYVPLFSRDMNTFKNCCYSLD
Purified protein [1]
  Km: 1.7 ± 0.13 µM
  kcat: 38 s⁻¹
  kcat/Km: 2.2e+07 M⁻¹ s⁻¹
Purified protein [2]
  Km: 1.1 ± 0.12 µM
  kcat: 39 s⁻¹
  kcat/Km: 3.5e+07 M⁻¹ s⁻¹
Purified protein [3]
  Km: 7,200 ± 530 μM
  kcat: 4.7 s⁻¹
  kcat/Km: 650 M⁻¹ s⁻¹
Purified protein [4]
  Km: 2.0 ± 0.14 µM
  kcat: 18 s⁻¹
  kcat/Km: 9e+06 M⁻¹ s⁻¹
